This note sets out measurements from US20120094280.

Data set [1] has as its target M.SssI DNA cytosine-C5 methyltransferase (Spiroplasma sp.?) (UniProt P15840). Conditions: formaldehyde; GCGC site resistant to R.Hin6I.
For data set [2], the target named is T1, M.HpaII DNA cytosine-C5 methyltransferase (UniProt P15446).
T1 sequence: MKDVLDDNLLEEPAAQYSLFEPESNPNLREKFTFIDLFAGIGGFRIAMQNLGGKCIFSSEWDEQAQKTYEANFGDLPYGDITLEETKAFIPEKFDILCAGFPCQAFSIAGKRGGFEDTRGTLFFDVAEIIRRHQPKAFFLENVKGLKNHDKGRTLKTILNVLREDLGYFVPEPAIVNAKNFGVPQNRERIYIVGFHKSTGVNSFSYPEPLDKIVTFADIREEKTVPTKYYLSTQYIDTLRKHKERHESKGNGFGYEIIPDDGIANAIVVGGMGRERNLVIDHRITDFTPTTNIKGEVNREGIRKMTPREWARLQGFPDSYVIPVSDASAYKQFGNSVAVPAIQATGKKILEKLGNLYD
Conditions: formaldehyde; CCGG sites resistant to R.HpaII.

Sequence of M.SssI DNA cytosine-C5 methyltransferase (Spiroplasma sp.?) (P15840 whole entry): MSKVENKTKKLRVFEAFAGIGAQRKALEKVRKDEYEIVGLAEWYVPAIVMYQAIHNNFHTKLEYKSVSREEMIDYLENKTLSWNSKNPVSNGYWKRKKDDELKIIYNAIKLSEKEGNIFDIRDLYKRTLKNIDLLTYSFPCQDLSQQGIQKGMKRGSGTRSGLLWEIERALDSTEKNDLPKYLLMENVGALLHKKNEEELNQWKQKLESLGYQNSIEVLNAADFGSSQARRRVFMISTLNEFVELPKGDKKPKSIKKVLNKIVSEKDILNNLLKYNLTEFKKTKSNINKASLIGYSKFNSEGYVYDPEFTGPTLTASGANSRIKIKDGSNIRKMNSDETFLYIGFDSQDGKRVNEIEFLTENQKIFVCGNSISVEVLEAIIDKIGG

Regarding pUC-618 PCR fragment (618 bp), the activity in data set [1] and in data set [2] was 70% in each case.
